Test results: PMC7437355 (2020)

Columns and labels:
[1] = biological target: KRAS4b(1–169), wild type, GMPPNP-bound (UniProt P01116-2 1-169); test: ITC; GMPPNP
[2] = biological target: T1, SPRED1(EVH1), SPRED1(13–125), wild type (ITC) (human, UniProt Q7Z699 13-125); test: ITC
T1 chain: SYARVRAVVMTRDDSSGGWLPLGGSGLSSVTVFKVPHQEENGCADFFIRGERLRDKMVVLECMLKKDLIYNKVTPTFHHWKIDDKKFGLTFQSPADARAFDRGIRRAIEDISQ

Kd [1]: 4 µM
Kd [2]: 0.26 µM
B1: NF1 isoform I (GRD containing additional 23 residues) (domain or fragment)
chain: DRFERLVELVTMMGDQGELPIAMALANVVPCSQWDELARVLVTLFDSRHLLYQLLWNMFSKEVELADSMQTLFRGNSLASKIMTFCFKVYGATYLQKLLDPLLRIVITSSDWQHVSFEVDPTRLEPSESLEENQRNLLQMTEKFFHAIISSSSEFPPQLRSVCHCLYQATCHSLLNKATVKEKKENKKSVVSQRFPQNSIGAVGSAMFLRFINPAIVSPYEAGILDKKPPPRIERGLKLMSKILQSIANHVLFTKEEHMRPFNDFVKSNFDAARRFFLDIASDCPTSDAVNHSLSFISDGNVLALHRLLWNNQEKIGQYLSSNRDHKAVGRRPFDKMATLLAYLGPPEH
